Earlier results as cited in patent US20260256431A1, “IMAGING OF MATRIX METALLOPROTEINASE INHIBITORS” (Micro Vide, LLC, priority 2022, published 2026).

System: MMP-2, MMP-9, and MMP-14

B1: rTIMP-3: recombinant tissue inhibitor of metalloproteinases-3 (protein, UniProt P35625 24-211, looked up)
Metalloproteinase inhibitor 3: CTCSPSHPQDAFCNSDIVIRAKVVGKKLVKEGPFGTLVYTIKQMKMYRGFTKMPHVQYIHTEASESLCGLKLEVNKYQYLLTGRVYDGKMYTGLCNFVERWDQLTLSQRKGLNYRYHLGCNCKIKSCYYLPCFVTSKNECLWTDMLSNFGYPGYQSKHYACIRQKGGYCSWYRGWAPPDKSIINATDP
Intracoronary delivery in pigs at the time of reperfusion, earlier study
  MMP activity and LV remodeling and indices of heart failure progression: favorably reduced
Sustained release of rTIMP-3 from a hydrogel, observed previously
  tissue MMP-2, MMP-9, and MMP-14 activity: inhibition
